Results on one molecule are retold here after paper PMC2717645.

The assay concerns the target taxol-stabilized microtubules (bovine brain tubulin) (bovine) (UniProt Q6B856). The assay is described as follows: co-sedimentation.

B1: recombinant LC1 (natural protein)
chain: MAKATTIKDAIRIFEERKSVVATEAEKVELHGMIPPIEKMDATLSTLKACKHLALSTNNIEKISSLSGMENLRILSLGRNLIKKIENLDAVADTLEELWISYNQIASLSGIEKLVNLRVLYMSNNKITNWGEIDKLAALDKLEDLLLAGNPLYNDYKENNATSEYRIEVVKRLPNLKKLDGMPVDVDEREQANVARGG
B1: the stoichiometry N (LC1 per tubulin monomer) was found to be 1.06.
